Data reported in IntAct's records for PubMed 25910212.

B1: Casein kinase I isoform epsilon (Homo sapiens), P49674 (parent)
chain: MELRVGNKYRLGRKIGSGSFGDIYLGANIASGEEVAIKLECVKTKHPQLHIESKFYKMMQGGVGIPSIKWCGAEGDYNVMVMELLGPSLEDLFNFCSRKFSLKTVLLLADQMISRIEYIHSKNFIHRDVKPDNFLMGLGKKGNLVYIIDFGLAKKYRDARTHQHIPYRENKNLTGTARYASINTHLGIEQSRRDDLESLGYVLMYFNLGSLPWQGLKAATKRQKYERISEKKMSTPIEVLCKGYPSEFSTYLNFCRSLRFDDKPDYSYLRQLFRNLFHRQGFSYDYVFDWNMLKFGAARNPEDVDRERREHEREERMGQLRGSATRALPPGPPTGATANRLRSAAEPVASTPASRIQPAGNTSPRAISRVDRERKVSMRLHRGAPANVSSSDLTGRQEVSRIPASQTSVPFDHLGK
partner: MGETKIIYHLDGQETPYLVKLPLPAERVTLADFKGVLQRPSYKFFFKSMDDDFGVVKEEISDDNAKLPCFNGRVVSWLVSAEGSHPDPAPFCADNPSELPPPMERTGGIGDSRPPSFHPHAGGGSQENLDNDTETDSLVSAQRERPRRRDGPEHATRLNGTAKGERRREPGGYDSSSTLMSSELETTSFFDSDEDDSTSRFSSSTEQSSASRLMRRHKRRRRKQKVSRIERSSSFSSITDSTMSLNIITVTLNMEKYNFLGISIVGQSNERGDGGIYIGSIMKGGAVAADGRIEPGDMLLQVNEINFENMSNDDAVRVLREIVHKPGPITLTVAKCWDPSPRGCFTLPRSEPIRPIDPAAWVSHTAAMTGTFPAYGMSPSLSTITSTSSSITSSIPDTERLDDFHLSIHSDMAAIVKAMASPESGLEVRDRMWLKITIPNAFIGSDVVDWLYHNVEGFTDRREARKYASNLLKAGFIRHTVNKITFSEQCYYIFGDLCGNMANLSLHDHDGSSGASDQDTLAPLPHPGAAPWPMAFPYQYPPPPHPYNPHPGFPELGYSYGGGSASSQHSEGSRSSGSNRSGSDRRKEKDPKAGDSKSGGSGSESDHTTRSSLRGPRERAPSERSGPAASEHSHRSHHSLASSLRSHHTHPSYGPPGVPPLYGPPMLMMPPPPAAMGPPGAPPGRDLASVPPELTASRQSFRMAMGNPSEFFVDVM
B2: Adiponectin (Homo sapiens), Q15848 (parent)
chain: MLLLGAVLLLLALPGHDQETTTQGPGVLLPLPKGACTGWMAGIPGHPGHNGAPGRDGRDGTPGEKGEKGDPGLIGPKGDIGETGVPGAEGPRGFPGIQGRKGEPGEGAYVYRSAFSVGLETYVTIPNMPIRFTKIFYNQQNHYDGSTGKFHCNIPGLYYFAYHITVYMKDVKVSLFKKDKAMLFTYDQYQENNVDQASGSVLLHLEVGDQVWLQVYGEGERNGLYADNDNDSTFTGFLLYHDTN
partner: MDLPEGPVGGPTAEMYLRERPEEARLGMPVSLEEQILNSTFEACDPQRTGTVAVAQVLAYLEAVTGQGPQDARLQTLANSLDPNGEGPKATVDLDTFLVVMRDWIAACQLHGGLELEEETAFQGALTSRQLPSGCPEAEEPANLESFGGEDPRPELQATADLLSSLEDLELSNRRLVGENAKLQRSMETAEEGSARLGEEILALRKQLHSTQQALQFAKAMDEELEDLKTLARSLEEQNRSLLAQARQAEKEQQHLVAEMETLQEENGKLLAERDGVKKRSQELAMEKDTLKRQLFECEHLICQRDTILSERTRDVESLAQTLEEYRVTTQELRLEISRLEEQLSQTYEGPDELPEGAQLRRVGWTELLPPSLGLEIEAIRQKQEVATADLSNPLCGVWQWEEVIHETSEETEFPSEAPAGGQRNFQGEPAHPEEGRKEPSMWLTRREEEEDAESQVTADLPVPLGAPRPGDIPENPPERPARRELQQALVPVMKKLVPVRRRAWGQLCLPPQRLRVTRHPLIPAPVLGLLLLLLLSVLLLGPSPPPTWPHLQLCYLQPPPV
B3: Glial cell line-derived neurotrophic factor (Homo sapiens), P39905 (parent)
chain: MKLWDVVAVCLVLLHTASAFPLPAGKRPPEAPAEDRSLGRRRAPFALSSDSNMPEDYPDQFDDVMDFIQATIKRLKRSPDKQMAVLPRRERNRQAAAANPENSRGKGRRGQRGKNRGCVLTAIHLNVTDLGLGYETKEELIFRYCSGSCDAAETTYDKILKNLSRNRRLVSDKVGQACCRPIAFDDDLSFLDDNLVYHILRKHSAKRCGCI
B4: Complement factor H-related protein 5 (Homo sapiens), Q9BXR6 (parent)
chain: MLLLFSVILISWVSTVGGEGTLCDFPKIHHGFLYDEEDYNPFSQVPTGEVFYYSCEYNFVSPSKSFWTRITCTEEGWSPTPKCLRMCSFPFVKNGHSESSGLIHLEGDTVQIICNTGYSLQNNEKNISCVERGWSTPPICSFTKGECHVPILEANVDAQPKKESYKVGDVLKFSCRKNLIRVGSDSVQCYQFGWSPNFPTCKGQVRSCGPPPQLSNGEVKEIRKEEYGHNEVVEYDCNPNFIINGPKKIQCVDGEWTTLPTCVEQVKTCGYIPELEYGYVQPSVPPYQHGVSVEVNCRNEYAMIGNNMITCINGIWTELPMCVATHQLKRCKIAGVNIKTLLKLSGKEFNHNSRIRYRCSDIFRYRHSVCINGKWNPEVDCTEKREQFCPPPPQIPNAQNMTTTVNYQDGEKVAVLCKENYLLPEAKEIVCKDGRWQSLPRCVESTAYCGPPPSINNGDTTSFPLSVYPPGSTVTYRCQSFYKLQGSVTVTCRNKQWSEPPRCLDPCVVSEENMNKNNIQLKWRNDGKLYAKTGDAVEFQCKFPHKAMISSPPFRAICQEGKFEYPICE
partner: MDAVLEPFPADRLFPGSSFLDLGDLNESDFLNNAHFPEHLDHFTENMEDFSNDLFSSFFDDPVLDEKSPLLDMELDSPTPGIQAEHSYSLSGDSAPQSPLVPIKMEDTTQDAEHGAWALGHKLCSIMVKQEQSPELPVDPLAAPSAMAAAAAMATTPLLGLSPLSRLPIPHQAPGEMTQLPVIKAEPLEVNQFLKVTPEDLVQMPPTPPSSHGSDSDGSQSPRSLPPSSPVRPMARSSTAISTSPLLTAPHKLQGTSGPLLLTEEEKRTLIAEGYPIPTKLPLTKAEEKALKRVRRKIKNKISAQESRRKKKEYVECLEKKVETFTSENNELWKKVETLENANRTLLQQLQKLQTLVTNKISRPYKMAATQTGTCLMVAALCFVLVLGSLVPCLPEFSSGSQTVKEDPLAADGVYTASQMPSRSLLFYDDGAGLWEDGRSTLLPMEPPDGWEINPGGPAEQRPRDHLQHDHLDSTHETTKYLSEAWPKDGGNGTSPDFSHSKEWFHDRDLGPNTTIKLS

Variants of: B1
Conditions: with dvl3_human DVL3, Q92997

effect of a mutation on the interaction	Variant
disrupting interaction strength	S408N

Variants of: B2
Conditions: with kash5_human KASH5, Q8N6L0

effect of a mutation on the interaction	Variant
with no effect	Y111H
with no effect	I164T

Variants of: B3
Conditions: with AGTRAP

Variant	effect of a mutation on the interaction
R93W	with no effect
D150N	with no effect

Now from value to variant:

effect of a mutation on the interaction	Variant
with no effect	T154S
with no effect	P21S

Variants of: B4
Conditions: with cr3l1_human CREB3L1, Q96BA8

effect of a mutation on the interaction	Variant
with no effect	F192L
with no effect	P46S
with no effect	R356H
